Target: T1, orexin receptor type 1 (OX1R), recombinant, stably expressed on HEK cells (human, UniProt O43613 1-425)
T1 construct: whole, on cells; also called HEK-OX1R; hypocretin receptor type 1
T1 sequence (looked up): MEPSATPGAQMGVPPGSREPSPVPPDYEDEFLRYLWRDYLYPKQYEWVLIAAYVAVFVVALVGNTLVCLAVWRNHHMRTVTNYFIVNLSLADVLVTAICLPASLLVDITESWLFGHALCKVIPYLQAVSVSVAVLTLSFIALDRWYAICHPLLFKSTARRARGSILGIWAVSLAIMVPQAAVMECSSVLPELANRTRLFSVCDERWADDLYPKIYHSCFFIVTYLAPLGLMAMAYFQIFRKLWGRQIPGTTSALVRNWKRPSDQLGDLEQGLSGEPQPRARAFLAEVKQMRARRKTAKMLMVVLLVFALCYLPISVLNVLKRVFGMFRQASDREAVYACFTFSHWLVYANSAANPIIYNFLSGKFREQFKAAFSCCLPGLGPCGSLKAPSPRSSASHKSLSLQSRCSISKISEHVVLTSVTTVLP
Experiment: competitive inhibition of 125I-OxA binding to HEK-OX1R cells

B1: C2 antibody (antibody, V domains shown)
VH: EVQLVESGGSLVKPGGSLRLSCAASGFTFSNSYMNWVRQAPGKGLEWISSIYGSSRYIDYADFVKGRFTISRDNATNSLYLQMNSLRAEDTAVYYCVRSSSYYGSGMDVWGRGTLVTVSS
VL: QSVLTQPASVSGSPGQSITISCAGTSSDVGGYGSVSWYQQHPGKAPKLMIYYDSYRPSGVSNRFSGSKSGNTASLTISGLQAEDEADYYCSSNTNSSTRVFGGGTKLAVLG
notes: Human antibody from phage display; also called anti-OX1R antibody C2
- IC50: ~5 µM
